Changes are numbered by the printed parent chain.
B1: PS3B1357 (bispecific antibody, human IgG1, lambda, L234A L235A)
heavy 1: QVQLQQSGPGLVKPSQTLSLTCAISGDSVFNNNAAWSWIRQSPSRGLEWLGRTYYRSKWLYDYAVSVKSRITINPDTSKNQFSLQLNSVTPEDTAVYYCARGYSSSFDYWGQGTLVTVSSASTKGPSVFPLAPSSKSTSGGTAALGCLVKDYFPEPVTVSWNSGALTSGVHTFPAVLQSSGLYSLSSVVTVPSSSLGTQTYICNVNHKPSNTKVDKKVEPKSCDKTHTCPPCPAPEAAGGPSVFLFPPKPKDTLMISRTPEVTCVVVSVSHEDPEVKFNWYVDGVEVHNAKTKPREEQYNSTYRVVSVLTVLHQDWLNGKEYKCKVSNKALPAPIEKTISKAKGQPREPQVYTLPPSREEMTKNQVSLTCLVKGFYPSDIAVEWESNGQPENNYKTTPPVLDSDGSFLLYSKLTVDKSRWQQGNVFSCSVMHEALHNHYTQKSLSLSPGK
light 1: QSALTQPASVSGSPGQSITISCTGTSSNIGTYKFVSWYQQHPGKAPKVMIYEVSKRPSGVSNRFSGSKSGNTASLTISGLQAEDEADYYCVSYAGSGTLLFGGGTKLTVLGQPKAAPSVTLFPPSSEELQANKATLVCLISDFYPGAVTVAWKADSSPVKAGVETTTPSKQSNNKYAASSYLSLTPEQWKSHRSYSCQVTHEGSTVEKTVAPTECS
heavy 2: EVQLVESGGGLVQPGGSLRLSCAASGFTFSSYAMSWVRQAPGKGLEWVSAISGGIGSTYYADSVKGRFTISRDNSKNTLWLQMNSLRAEDTAVYYCAKDGVGATPYYFDYWGQGTLVTVSSASTKGPSVFPLAPSSKSTSGGTAALGCLVKDYFPEPVTVSWNSGALTSGVHTFPAVLQSSGLYSLSSVVTVPSSSLGTQTYICNVNHKPSNTKVDKKVEPKSCDKTHTCPPCPAPEAAGGPSVFLFPPKPKDTLMISRTPEVTCVVVSVSHEDPEVKFNWYVDGVEVHNAKTKPREEQYNSTYRVVSVLTVLHQDWLNGKEYKCKVSNKALPAPIEKTISKAKGQPREPQVYTLPPSREEMTKNQVSLTCLVKGFYPSDIAVEWESNGQPENNYKTTPPVLDSDGSFFLYSRLTVDKSRWQQGNVFSCSVMHEALHNHYTQKSLSLSPGK
light 2: QSVLTQPPSVSAAPGQKVTISCSGSSSNIGINYVSWYQQLPGTAPKLLIYDNNKRPSGIPDRFSGSKSGTSATLGITGLQTGDEADYYCGTWDSSLSAVVFGGGTKLTVLGQPKAAPSVTLFPPSSEELQANKATLVCLISDFYPGAVTVAWKADSSPVKAGVETTTPSKQSNNKYAASSYLSLTPEQWKSHRSYSCQVTHEGSTVEKTVAPTECS
B2: PS3B1352 (bispecific antibody, human IgG1, lambda, L234A L235A)
heavy 1: B1 heavy 1 with G10R, K13R, I73V, K79R, S83T, V96L
light 1: B1 light 1 with G43D, M49L, I50L, N62S, E85Q, Y89H
heavy 2: B1 heavy 2
light 2: B1 light 2 with I31N, V99Y, G103T, L107V
B3: PS3B1356 (bispecific antibody, human IgG1, lambda, L234A L235A)
heavy 1: B1 heavy 1
light 1: B1 light 1
heavy 2: B1 heavy 2
light 2: B1 light 2 with I31N, V99Y, G103T, L107V
B4: PS3B917 (bispecific antibody, human IgG1, lambda, L234A L235A)
heavy 1: QVQLQQSGPRLVRPSQTLSLTCAISGDSVFNNNAAWSWIRQSPSRGLEWLGRTYYRSKWLYDYAVSVKSRITVNPDTSRNQFTLQLNSVTPEDTALYYCARGYSSSFDYWGQGTLVTVSSASTKGPSVFPLAPSSKSTSGGTAALGCLVKDYFPEPVTVSWNSGALTSGVHTFPAVLQSSGLYSLSSVVTVPSSSLGTQTYICNVNHKPSNTKVDKKVEPKSCDKTHTCPPCPAPEAAGGPSVFLFPPKPKDTLMISRTPEVTCVVVSVSHEDPEVKFNWYVDGVEVHNAKTKPREEQYNSTYRVVSVLTVLHQDWLNGKEYKCKVSNKALPAPIEKTISKAKGQPREPQVYTLPPSREEMTKNQVSLTCLVKGFYPSDIAVEWESNGQPENNYKTTPPVLDSDGSFLLYSKLTVDKSRWQQGNVFSCSVMHEALHNHYTQKSLSLSPG
light 1: B1 light 1 with G43D, M49L, I50L, N62S, E85Q, Y89H
heavy 2: EVQLVESGGGLVKPGGSLRLSCAASGFTFSRYNMNWVRQAPGKGLEWVSSINSNSRYIYYADSVKGRFTISRDSAKNSLYLQMNSLRAEDTAVYYCAKTMGDYYYYYGMDVWGQGTTVTVSSASTKGPSVFPLAPSSKSTSGGTAALGCLVKDYFPEPVTVSWNSGALTSGVHTFPAVLQSSGLYSLSSVVTVPSSSLGTQTYICNVNHKPSNTKVDKKVEPKSCDKTHTCPPCPAPEAAGGPSVFLFPPKPKDTLMISRTPEVTCVVVSVSHEDPEVKFNWYVDGVEVHNAKTKPREEQYNSTYRVVSVLTVLHQDWLNGKEYKCKVSNKALPAPIEKTISKAKGQPREPQVYTLPPSREEMTKNQVSLTCLVKGFYPSDIAVEWESNGQPENNYKTTPPVLDSDGSFFLYSRLTVDKSRWQQGNVFSCSVMHEALHNHYTQKSLSLSPG
light 2: QSVLTQPPSVSGAPGQRVTISCTGSSFNLGAGYDVHWYQQVPGTVPKLLIYDNSNRPSGVPDRFSGSKSGTSASLAITGLQAEDETVYYCQSYDSSLSGVVFGGGTKLTVLGQPKAAPSVTLFPPSSEELQANKATLVCLISDFYPGAVTVAWKADSSPVKAGVETTTPSKQSNNKYAASSYLSLTPEQWKSHRSYSCQVTHEGSTVEKTVAPTECS
B5: PS3B1353 (bispecific antibody, human IgG1, lambda, L234A L235A)
heavy 1: B1 heavy 1 with G10R, K13R, I73V, K79R, S83T, V96L
light 1: B1 light 1 with G43D, M49L, I50L, N62S, E85Q, Y89H
heavy 2: B1 heavy 2
light 2: B1 light 2

How the values were obtained:
Assay in all cases: cell-based or functional assay
[1] = target: T1, Human PSMA on prostate cancer cell lines (C4-2B, 22RV1) (human, UniProt Q04609 1-750)
[2] = target: T1, Human PSMA on prostate cancer cell …; remark: listed apart in the source
[3] = target: Human CD3 on T cells / Jurkat cells (human, UniProt P07766 23-207)
Chain of Human CD3 on T cells / Jurkat cells (P07766 23-207 limits assumed): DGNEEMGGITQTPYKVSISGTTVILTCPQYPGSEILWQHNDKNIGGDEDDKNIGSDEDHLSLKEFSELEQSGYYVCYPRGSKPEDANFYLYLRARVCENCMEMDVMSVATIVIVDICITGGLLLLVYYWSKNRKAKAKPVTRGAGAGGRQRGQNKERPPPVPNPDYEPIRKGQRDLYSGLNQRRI

T1 sequence (Q04609 whole entry): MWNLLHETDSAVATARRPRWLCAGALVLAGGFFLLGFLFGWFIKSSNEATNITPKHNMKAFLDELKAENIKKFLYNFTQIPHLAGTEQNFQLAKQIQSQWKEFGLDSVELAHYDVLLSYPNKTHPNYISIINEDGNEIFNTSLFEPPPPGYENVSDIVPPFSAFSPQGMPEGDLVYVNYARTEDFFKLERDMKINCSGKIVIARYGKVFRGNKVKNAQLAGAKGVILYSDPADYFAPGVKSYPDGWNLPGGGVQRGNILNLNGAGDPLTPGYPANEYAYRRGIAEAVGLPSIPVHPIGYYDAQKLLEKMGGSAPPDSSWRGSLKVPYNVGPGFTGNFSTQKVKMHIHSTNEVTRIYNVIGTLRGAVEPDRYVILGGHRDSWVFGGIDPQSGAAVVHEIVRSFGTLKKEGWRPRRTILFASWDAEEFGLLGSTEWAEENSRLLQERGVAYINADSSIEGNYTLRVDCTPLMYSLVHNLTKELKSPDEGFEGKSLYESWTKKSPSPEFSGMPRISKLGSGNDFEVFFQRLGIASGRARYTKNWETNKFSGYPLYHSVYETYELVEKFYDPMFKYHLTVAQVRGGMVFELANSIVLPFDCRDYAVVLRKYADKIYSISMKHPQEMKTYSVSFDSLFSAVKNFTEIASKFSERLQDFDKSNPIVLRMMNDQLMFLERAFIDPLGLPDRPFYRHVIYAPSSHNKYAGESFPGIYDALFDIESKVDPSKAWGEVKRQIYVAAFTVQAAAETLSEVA

| Binder | Cytotoxicity (C4-2B cells, 3:1 E:T ratio, 5 Day) at 0.3 nM [1] | Cytotoxicity (C4-2B cells, 3:1 E:T ratio, 5 Day) at 1.1 nM [1] | Cytotoxicity (C4-2B cells, 3:1 E:T ratio, 5 Day) at 3.3 nM [1] | Cytotoxicity (C4-2B cells, 3:1 E:T ratio, 5 Day) at 10 nM [1] | Cytotoxicity (C4-2B cells, 3:1 E:T ratio, 5 Day) at 30 nM [1] | % cytolysis at 120 hours (C4-2B, xCelligence, donor #1) at 80 pM [2] | % cytolysis at 120 hours (C4-2B, xCelligence, donor #1) at 0.4 nM [2] | % cytolysis at 120 hours (C4-2B, xCelligence, donor #1) at 2 nM [2] | % cytolysis at 120 hours (C4-2B, xCelligence, donor #1) at 10 nM [2] | % cytolysis at 120 hours (C4-2B, xCelligence, donor #1) at 50 nM [2] | % cytolysis at 120 hours (C4-2B, xCelligence, donor #2) at 80 pM [2] | % cytolysis at 120 hours (C4-2B, xCelligence, donor #2) at 0.4 nM [2] | % cytolysis at 120 hours (C4-2B, xCelligence, donor #2) at 2 nM [2] | % cytolysis at 120 hours (C4-2B, xCelligence, donor #2) at 10 nM [2] | % cytolysis at 120 hours (C4-2B, xCelligence, donor #2) at 50 nM [2] | % cytolysis at 120 hours (C4-2B, xCelligence, donor #3) at 80 pM [2] | % cytolysis at 120 hours (C4-2B, xCelligence, donor #3) at 0.4 nM [2] | % cytolysis at 120 hours (C4-2B, xCelligence, donor #3) at 2 nM [2] | % cytolysis at 120 hours (C4-2B, xCelligence, donor #3) at 10 nM [2] | % cytolysis at 120 hours (C4-2B, xCelligence, donor #3) at 50 nM [2] | other results |
| --- | --- | --- | --- | --- | --- | --- | --- | --- | --- | --- | --- | --- | --- | --- | --- | --- | --- | --- | --- | --- | --- |
| B1 | 96% | 96% | 95% | 96% | 91% | 100% | 100% | 100% | 100% | 100% | 100% | 100% | 100% | 100% | 100% | 100% | 100% | 100% | 100% | 100% | – |
| B2 | 65% | 88% | 89% | 85% | 79% | 77% | 100% | 100% | 100% | 100% | 0% | 100% | 100% | 100% | 100% | 9% | 100% | 100% | 100% | 100% | – |
| B3 | – | 55% | 80% | 83% | 88% | 0% | 100% | 100% | 100% | 100% | 0% | 24% | 100% | 100% | 100% | 0% | 100% | 100% | 100% | 100% | – |
| B4 | – | – | – | – | – | – | – | – | – | – | – | – | – | – | – | – | – | – | – | – | T cell activation EC50 [M] (CD25+ T cells, C4-2B co-culture, 72 h) [3]: 4.48e-12 M |
| B5 | 98% | 98% | 97% | 95% | 92% | 100% | 100% | 100% | 100% | 100% | 100% | 100% | 100% | 100% | 100% | 100% | 100% | 100% | 100% | 100% | – |
